Measured values reported in patent publication US20210155697A1 (UNITY BIOTECHNOLOGY, published 2021).
Numbering of substitutions follows the chain as printed.

T1: rabbit full-length Tie2 on HEK cells (rabbit)
T1 chain: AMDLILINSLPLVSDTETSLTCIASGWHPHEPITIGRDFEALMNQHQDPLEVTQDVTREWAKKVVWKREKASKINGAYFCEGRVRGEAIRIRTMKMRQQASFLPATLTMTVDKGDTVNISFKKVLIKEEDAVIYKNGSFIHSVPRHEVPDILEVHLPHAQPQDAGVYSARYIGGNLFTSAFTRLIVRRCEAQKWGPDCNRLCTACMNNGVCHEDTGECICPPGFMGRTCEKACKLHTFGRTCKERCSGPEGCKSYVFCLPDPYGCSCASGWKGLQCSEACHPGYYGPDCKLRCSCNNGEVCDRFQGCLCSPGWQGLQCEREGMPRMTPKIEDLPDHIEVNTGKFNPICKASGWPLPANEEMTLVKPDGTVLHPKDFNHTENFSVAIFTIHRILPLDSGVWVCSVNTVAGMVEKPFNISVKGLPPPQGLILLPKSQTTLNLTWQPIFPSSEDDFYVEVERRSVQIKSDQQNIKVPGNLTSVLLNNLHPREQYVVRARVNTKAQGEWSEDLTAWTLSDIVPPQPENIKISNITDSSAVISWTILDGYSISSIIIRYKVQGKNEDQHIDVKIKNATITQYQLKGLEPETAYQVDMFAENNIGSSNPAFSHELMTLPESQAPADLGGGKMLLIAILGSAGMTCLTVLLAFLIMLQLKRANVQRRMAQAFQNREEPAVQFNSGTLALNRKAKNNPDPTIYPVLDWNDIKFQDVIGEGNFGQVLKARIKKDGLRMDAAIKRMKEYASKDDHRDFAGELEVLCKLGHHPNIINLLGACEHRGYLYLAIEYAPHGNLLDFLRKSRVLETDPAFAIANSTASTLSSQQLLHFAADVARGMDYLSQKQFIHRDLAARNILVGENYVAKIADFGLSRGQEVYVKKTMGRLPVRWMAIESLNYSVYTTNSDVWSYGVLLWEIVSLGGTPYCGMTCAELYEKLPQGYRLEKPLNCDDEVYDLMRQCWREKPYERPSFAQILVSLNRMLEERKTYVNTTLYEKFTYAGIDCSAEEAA

B1: Angiopoietin-1 (ligand, UniProt Q15389 20-498, looked up)
chain: SNQRRSPENSGRRYNRIQHGQCAYTFILPEHDGNCRESTTDQYNTNALQRDAPHVEPDFSSQKLQHLEHVMENYTQWLQKLENYIVENMKSEMAQIQQNAVQNHTATMLEIGTSLLSQTAEQTRKLTDVETQVLNQTSRLEIQLLENSLSTYKLEKQLLQQTNEILKIHEKNSLLEHKILEMEGKHKEELDTLKEEKENLQGLVTRQTYIIQELEKQLNRATTNNSVLQKQQLELMDTVHNLVNLCTKEGVLLKGGKREEEKPFRDCADVYQAGFNKSGIYTIYINNMPEPKKVFCNMDVNGGGWTVIQHREDGSLDFQRGWKEYKMGFGNPSGEYWLGNEFIFAITSQRQYMLRIELMDWEGNRAYSQYDRFHIGNEKQNYRLYLKGHTGTAGKQSSLILHGADFSTKDADNDNCMCKCALMLTGGWWFDACGPSNLNGMFYTAGQNHGKLNGIKWHYFKGPSYSLRSTTMMIRPLDF
B2: human anti-Tie2 antibody #3 (antibody, V domains shown)
VH: DVQLVESGGGVVRPGESLRLSCTASGFTFDSYGMSWVRQAPGKGLEWVSSINVGDNTYYADSVRGRFIISRDSSRNTLYLQMNSLTAEDTAVYYCANWNSFFDYWGLGTLVTVSS
VL: EIVLTQSPGTLSLSPGEIATLSCRASQNVRSDLAWYQQKPGQAPRLLIYDASNRATGIPDRFSGSGSGTDFTLTISSLQSEDFAVYYCQQYSNWPPLTFGGGTKVEIK
notes: also called Ab #3; Antibody Clone # 3
B3: antibody clone #3 Fab (Fab, V domains shown)
VH: B2 VH
VL: B2 VL
B4: anti-Tie2 antibody #5 (antibody, V domains shown)
VH: DVQLVESGGGVVRPGESLRLSCTASGFSFDVYAMTWVRQAPGKGLEWLTLISGTGRMTYYADSVKGRFTVSRDNSKKTLYLQMNSLRAEDTAVYYCAKDPFGHGFFDYWGLGTLVTVSS
VL: B2 VL with I18R, N28T, R30G, D32K, N53T, S92N
notes: also called Ab #5; Antibody Clone # 5
B5: human anti-Tie2 antibody #1 (antibody, V domains shown)
VH: DVQLVESGGGVVRPGESLRLSCAASGFTFSSYAMSWVRQAPGEGLEWVARISDYTIYYADSVKGRFTISRDNSKNTLYLQMNSLRAEDTAVYYCAKSGPKSGKYWNNFFDSWGLGTLVTVSS
VL: EIVLTQSPGTLSVSPGERATLTCRASQSVKTDLAWYQQKPGQAPRLLIYGATTRATGIPARFSGSGSGTEFTLTITNLQSEDFAVYYCQQYYVWPPLTFGGGTKVEIK
notes: also called Ab #1; Antibody Clone # 1
B6: human anti-Tie2 antibody #2 (antibody, V domains shown)
VH: DVQLVESGGGVVRPGESLRLSCAASGFSFINFAMTWVRQAPGEGPEWVSLISDDGRGNRPYYADSVKGRFTISRDNSKNILYLQMNSLRVEDTATYYCAKVSWDVFFDYWGLGTVVTVSS
VL: EIVLTQSPGTVSLSPGERVTLSCRASQPIDVYLAWYQQKPGQAPRLLIYGANRRAIDIPDRFSGSGSGTEFTLTINSLQNEDFAVYFCQQYMTWPPVTFGGGTKVEIK
notes: also called Ab #2; Antibody Clone # 2
B7: anti-Tie2 antibody #31 (antibody, V domains shown)
VH: B6 VH with L18P, V115L
VL: B6 VL
notes: also called Ab #31; Antibody Clone # 31
B8: anti-Tie2 antibody #6 (antibody, V domains shown)
VH: B4 VH
VL: EIVLTQSPGTLTLSPGETATLTCRASQSVNRNLAWYQEKPDQAPRLLIYDARTRATGVPDRFSGSGSGTDFTLTINSLQSEDFAVYVCQQYYDWPPFTFGGGTKVEIK
notes: also called Ab #6; Antibody Clone # 6

Experiments:
[1] = target: T2, human full-length Tie2 on cells (human, UniProt Q02763 23-1124); assay: cell-based or functional assay
[2] = target: T3, rat full-length Tie2 on HEK cells (rat, UniProt A0ABK0L6J5 19-1116); assay: flow cytometry on HEK/ratTie2 cells; Apparent Kd (EC50 binding)
T3 construct: whole, on cells; also called HEK/ratTie2
Excerpt: (§1) Briefly, expression plasmids containing the full-length Tie2 coding sequence for each species were used to transfect primary human endothelial cells (HUVECs) as well as human embryonic kidney (HEK293) cells. A stable cell population was selected by treating transfectants with puromycin antibiotic over the course of 2 weeks and single cell clones were generated using fluorescence activated cell sorting. Upon confirmation of cell surface expression of these Tie2 variants, cell lines were used to determine apparent Kd (EC50) values of anti-Tie2 antibodies on the various Tie2 proteins. […] Cells were labeled with decreasing concentrations of anti-Tie2 antibodies #1, #2, and #3 (10, 5, 2.5, 1, […], 0.63, 0.31, and 0.16 ug/mL) or non-specific hIgG1 antibody (10 ug/mL), followed by labeling with a rabbit anti-human IgG antibody conjugated to an Alexa Fluor 488 fluorophore (20 ug/ml). EC50 values were generated using ForeCyt™ software.

[3] = target: T2, human full-length Tie2 on cells; assay: flow cytometry on HEK293/Human Tie2 cells, mAb at 10 ug/mL; set-up: unit not given here
Excerpt: as §1
Target sequence in this assay (Q02763 23-1124 limits assumed): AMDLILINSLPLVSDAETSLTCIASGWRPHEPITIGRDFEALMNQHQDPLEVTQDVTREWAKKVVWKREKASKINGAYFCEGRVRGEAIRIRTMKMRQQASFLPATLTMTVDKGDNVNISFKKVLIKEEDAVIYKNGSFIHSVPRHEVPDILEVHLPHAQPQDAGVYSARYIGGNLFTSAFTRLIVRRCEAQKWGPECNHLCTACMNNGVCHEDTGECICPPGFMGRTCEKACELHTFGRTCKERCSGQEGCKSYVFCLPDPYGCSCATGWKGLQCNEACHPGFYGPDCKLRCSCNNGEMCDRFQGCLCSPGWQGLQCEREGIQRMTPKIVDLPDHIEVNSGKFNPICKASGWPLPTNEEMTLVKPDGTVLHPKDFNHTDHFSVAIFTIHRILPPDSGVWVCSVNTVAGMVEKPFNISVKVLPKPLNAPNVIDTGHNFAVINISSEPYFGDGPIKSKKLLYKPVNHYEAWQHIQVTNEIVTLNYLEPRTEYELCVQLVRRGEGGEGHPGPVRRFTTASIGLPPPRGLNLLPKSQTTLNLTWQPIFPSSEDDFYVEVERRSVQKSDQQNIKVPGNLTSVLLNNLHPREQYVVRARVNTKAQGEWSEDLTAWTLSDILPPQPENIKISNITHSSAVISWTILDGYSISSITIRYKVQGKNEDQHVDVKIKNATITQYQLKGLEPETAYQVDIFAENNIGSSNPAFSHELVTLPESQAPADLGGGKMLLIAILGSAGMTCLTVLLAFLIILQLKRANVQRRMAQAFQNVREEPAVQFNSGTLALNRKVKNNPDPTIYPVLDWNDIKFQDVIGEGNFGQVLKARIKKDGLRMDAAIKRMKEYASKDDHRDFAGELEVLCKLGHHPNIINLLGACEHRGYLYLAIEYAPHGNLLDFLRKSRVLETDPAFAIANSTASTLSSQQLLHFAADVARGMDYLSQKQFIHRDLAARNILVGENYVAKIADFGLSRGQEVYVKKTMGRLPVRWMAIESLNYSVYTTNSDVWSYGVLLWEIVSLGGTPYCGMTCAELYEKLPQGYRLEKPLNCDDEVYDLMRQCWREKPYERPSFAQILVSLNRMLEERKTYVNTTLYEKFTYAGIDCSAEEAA

[4] = target: T1, rabbit full-length Tie2 on HEK cells; assay: flow cytometry on HEK/RbTie2 cells; Apparent Kd (EC50 binding)
Excerpt: as §1

[5] = target: T2, human full-length Tie2 on cells; assay: flow cytometry on HUVEC; Apparent Kd (EC50 binding)
Excerpt: as §1

[6] = target: T4, murine full-length Tie2 on HEK293 cells (mouse, UniProt Q02858 23-1122); assay: flow cytometry on HEK293/Murine Tie2 cells, mAb at 10 ug/mL
T4 construct: whole, on cells; also called HEK293/Murine Tie2; HEK/mTie2
Excerpt: as §1
Target sequence in this assay (Q02858 23-1122): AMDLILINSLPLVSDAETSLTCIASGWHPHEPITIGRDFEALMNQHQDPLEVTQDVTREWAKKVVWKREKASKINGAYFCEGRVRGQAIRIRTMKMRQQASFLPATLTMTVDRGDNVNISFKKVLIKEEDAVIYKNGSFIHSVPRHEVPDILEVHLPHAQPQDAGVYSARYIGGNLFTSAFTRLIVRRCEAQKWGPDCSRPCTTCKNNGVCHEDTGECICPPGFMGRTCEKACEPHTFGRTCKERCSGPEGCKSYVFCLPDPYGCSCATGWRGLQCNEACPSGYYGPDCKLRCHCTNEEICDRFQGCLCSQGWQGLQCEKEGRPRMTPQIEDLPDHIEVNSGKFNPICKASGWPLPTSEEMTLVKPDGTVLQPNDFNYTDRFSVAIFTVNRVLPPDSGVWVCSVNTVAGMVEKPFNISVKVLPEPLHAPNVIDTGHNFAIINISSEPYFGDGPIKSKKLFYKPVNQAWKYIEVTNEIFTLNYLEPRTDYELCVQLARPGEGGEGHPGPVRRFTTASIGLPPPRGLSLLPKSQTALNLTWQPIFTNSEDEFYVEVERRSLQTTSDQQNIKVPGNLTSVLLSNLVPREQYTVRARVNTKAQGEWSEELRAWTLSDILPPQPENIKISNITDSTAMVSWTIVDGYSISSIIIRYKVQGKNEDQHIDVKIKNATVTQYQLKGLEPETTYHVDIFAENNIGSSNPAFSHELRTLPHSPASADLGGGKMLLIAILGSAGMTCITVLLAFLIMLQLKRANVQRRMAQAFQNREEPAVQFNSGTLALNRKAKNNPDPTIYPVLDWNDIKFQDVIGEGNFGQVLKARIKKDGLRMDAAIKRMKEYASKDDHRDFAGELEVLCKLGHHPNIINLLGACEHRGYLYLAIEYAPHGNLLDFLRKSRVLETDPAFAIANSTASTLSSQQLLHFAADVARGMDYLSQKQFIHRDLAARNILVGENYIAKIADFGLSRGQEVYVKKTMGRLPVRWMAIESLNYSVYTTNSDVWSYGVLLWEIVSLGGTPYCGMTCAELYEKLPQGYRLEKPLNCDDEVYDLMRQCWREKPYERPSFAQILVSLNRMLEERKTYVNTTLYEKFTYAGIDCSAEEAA

[7] = target: T4, murine full-length Tie2 on HEK293 cells; assay: flow cytometry on HEK/mTie2 cells; Apparent Kd (EC50 binding)
Excerpt: as §1

[8] = target: T5, cynomolgus monkey full-length Tie2 on HEK293 cells (cynomolgus monkey, UniProt G7PS68 23-1124); assay: flow cytometry on HEK293/Cyno Tie2 cells, mAb at 10 ug/mL
T5 construct: whole, on cells; also called HEK293/Cyno Tie2; HEK/cyno Tie2
Excerpt: as §1

[9] = target: T5, cynomolgus monkey full-length Tie2 on …; assay: flow cytometry on HEK/cyno Tie2 cells; Apparent Kd (EC50 binding)
Excerpt: as §1

[10] = target: T2, human full-length Tie2 on cells; assay: flow cytometry on HEK/huTie2 cells; Apparent Kd (EC50 binding)
Excerpt: as §1

[11] = target: T6, recombinant mouse Tie2 ECD protein (mouse, UniProt Q02858 23-746); assay: SPR (BIACORE), Tie2 ECD immobilized on CM5, Fab as analyte, 25 C
T6 construct: extracellular domain
Protocol: (§2) BIACORE™ (BIAcore, Inc., Piscataway, N.J.) was performed at 25° C. with immobilized human, rat or mouse Tie2 ECD antigens on carboxymethylated dextran biosensor chips (CM5) chips at about 10 response units (RU). CM5 chips were activated with N-ethyl-N′-(3-dimethylaminopropyl)-carbodiimide hydrochloride (EDC) and N-hydroxysuccinimide (NFIS) according to the supplier's instructions. All Tie2 ECD antigens were diluted with 10 mM sodium acetate, pH 4.8, to […] before injection at a flow rate of 5 μl/minute to achieve approximately 10 RU of coupled protein. Following the injection of each Tie2 ECD, 1 M ethanolamine was injected to block unreacted groups. For kinetics measurements, two-fold serial dilutions of the antibody clone #3 Fab (0.78 nM to 500 nM) were injected in PBS with 0.05% polysorbate 20 (TWEEN™-20) surfactant (PBST) at 25° C. at a flow rate of approximately 25 μl/min. Association rates (kon) and dissociation rates (koff) were calculated using a simple one-to-one Langmuir binding model (BIACORE™ Evaluation Software version 3.2) by simultaneously fitting the association and dissociation sensorgrams. The equilibrium dissociation constant (KD) was calculated as the ratio koff/kon. See, for example, Chen et al., J. Mol. Biol. 293:865-881 (1999).

Rat Tie2 ECD = target: T7, Rat Tie2 ECD (rat, UniProt A0ABK0L6J5 19-740); assay: as above
T7 construct: extracellular domain
Protocol: as §2

[12] = target: T8, recombinant human Tie2 ECD protein (human, UniProt Q02763 23-748); assay: as above
T8 construct: also called human Tie2 extracellular domain
Protocol: as §2

T6 sequence (Q02858 23-746): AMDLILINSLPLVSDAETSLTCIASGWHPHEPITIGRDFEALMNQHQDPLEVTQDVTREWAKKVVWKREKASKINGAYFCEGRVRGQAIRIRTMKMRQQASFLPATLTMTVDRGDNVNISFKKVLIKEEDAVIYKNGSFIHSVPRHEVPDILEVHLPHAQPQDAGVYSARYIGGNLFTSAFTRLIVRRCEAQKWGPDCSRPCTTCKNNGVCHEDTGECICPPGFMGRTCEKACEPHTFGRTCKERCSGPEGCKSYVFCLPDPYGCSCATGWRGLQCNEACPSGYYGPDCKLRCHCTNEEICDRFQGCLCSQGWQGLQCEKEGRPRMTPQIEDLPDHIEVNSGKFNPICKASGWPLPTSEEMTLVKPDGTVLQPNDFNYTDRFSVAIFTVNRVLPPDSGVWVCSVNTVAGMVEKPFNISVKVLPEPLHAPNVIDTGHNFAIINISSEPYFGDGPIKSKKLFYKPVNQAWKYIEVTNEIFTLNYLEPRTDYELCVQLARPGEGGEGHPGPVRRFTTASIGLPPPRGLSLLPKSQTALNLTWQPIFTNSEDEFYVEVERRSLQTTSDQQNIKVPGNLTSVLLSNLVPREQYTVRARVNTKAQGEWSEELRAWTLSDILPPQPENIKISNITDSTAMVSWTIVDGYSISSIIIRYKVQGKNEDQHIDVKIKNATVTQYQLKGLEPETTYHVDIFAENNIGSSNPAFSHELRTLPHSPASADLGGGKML
T8 sequence (Q02763 23-748 limits assumed): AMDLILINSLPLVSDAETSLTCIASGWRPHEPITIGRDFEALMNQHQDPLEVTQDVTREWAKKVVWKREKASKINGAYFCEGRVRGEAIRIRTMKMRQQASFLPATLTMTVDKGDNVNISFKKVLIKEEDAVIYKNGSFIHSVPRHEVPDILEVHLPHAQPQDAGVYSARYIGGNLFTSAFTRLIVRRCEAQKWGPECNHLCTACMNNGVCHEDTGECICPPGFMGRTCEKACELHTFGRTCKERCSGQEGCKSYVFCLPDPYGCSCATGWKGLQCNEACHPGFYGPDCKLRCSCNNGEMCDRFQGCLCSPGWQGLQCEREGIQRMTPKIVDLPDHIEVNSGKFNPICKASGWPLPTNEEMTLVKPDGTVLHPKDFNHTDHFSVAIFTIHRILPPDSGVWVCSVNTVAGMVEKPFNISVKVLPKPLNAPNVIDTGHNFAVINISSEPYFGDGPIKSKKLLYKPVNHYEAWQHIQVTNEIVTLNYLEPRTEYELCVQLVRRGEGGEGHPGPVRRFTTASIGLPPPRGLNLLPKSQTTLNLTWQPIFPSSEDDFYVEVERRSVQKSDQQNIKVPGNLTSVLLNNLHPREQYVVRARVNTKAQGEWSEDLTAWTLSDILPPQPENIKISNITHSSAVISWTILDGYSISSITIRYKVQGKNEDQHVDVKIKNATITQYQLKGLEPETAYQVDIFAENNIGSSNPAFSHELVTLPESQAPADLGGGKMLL

Row | Binder | EC50 of pAkt relative to total Akt in HUVEC cells (western blot, quantitative fluorescence imaging) [1] | Cross-Reactivity Screen (mAb at 10 ug/mL) [3] | EC50 [5] | Cross-Reactivity Screen (mAb at 10 ug/mL) [6] | Cross-Reactivity Screen (mAb at 10 ug/mL) [8] | EC50 [9] | EC50 [10] | also measured
1 | B1 | 0.54 nM | – | – | – | – | – | – | –
2 | B2 | 0.45 nM | 40.2 | 1.7 nM | 32.5 | 40.2 | 3.7 nM | 1.9 nM | EC50 [2]: 4.6 nM; EC50 [4]: 3.3 nM; EC50 [7]: 6.3 nM
3 | B3 | – | – | – | – | – | – | – | Kd [11]: 3.21 nM; koff [11]: 0.000876 s⁻¹; kon [11]: 273000 M⁻¹ s⁻¹; Kd (Rat Tie2 ECD): 2.56 nM; kon (Rat Tie2 ECD): 254000 M⁻¹ s⁻¹; Kd [12]: 2.34 nM; koff [12]: 0.000377 s⁻¹; kon [12]: 161000 M⁻¹ s⁻¹
4 | B4 | – | 60.2 | – | 0.2 | 73.1 | – | – | –
5 | B5 | 0.91 nM | 60.7 | 2 nM | 0.4 | 74.1 | 7.8 nM | 8 nM | –
6 | B6 | 0.48 nM | 64.9 | 1 nM | 41.7 | 53.2 | 7.7 nM | 2.7 nM | EC50 [2]: 1.4 nM; EC50 [4]: 4.1 nM
7 | B7 | – | 65.3 | – | 28.5 | 47.5 | – | – | –
8 | B8 | – | 63.7 | – | 0.3 | 78.8 | – | – | –
